The text below walks through data of patent US20070060521.

The subject of data set [1] is purified baculovirus-expressed STAT3β.
Data set [2] deals with purified baculovirus-expressed STAT3 (full-length).

purified ERKs protein kinases (BIOMOL): the “in vitro phosphorylation of STAT3b (32P-ATP, SDS-PAGE, autoradiography)” value (shortened to “in vitro phosphorylation of STAT3b”) in data set [1] was “STAT3b does not undergo serine phosphorylation by any of the MAPKs”. Besides, the “in vitro phosphorylation of STAT3 (32P-ATP, SDS-PAGE, autoradiography)” value in data set [2] was “STAT3 phosphorylation by ERK, however, is minimal compared to levels achieved for JNK and p38”.

With purified JNK protein kinase (BIOMOL), the “in vitro phosphorylation of STAT3b” value in data set [1] is recorded as “STAT3b does not undergo serine phosphorylation by any of the MAPKs”. Moreover, in data set [2], the “in vitro phosphorylation of STAT3 (32P-ATP, SDS-PAGE, autoradiography)” value is “p38 and JNK can effectively phosphorylate STAT3 in vitro”.

Regarding “purified p38 protein kinase (AG Scientific)”, the “in vitro phosphorylation of STAT3b” value in data set [1] was “STAT3b does not undergo serine phosphorylation by any of the MAPKs”. In addition, in data set [2], the “in vitro phosphorylation of STAT3 (32P-ATP, SDS-PAGE, autoradiography)” value was “p38 and JNK can effectively phosphorylate STAT3 in vitro”.
